Reference: US20120329717A1

What was measured:
[1] = molecular target: recombinant N-type (Cav2.2) VGCC α1B-b/α2δ1/β3 expressed in Xenopus oocytes (rat; rabbit) (UniProt Q02294); assay: cell-based or functional assay
[2] = molecular target: recombinant N-type (Cav2.2) VGCC α1B-b/α2δ1/β3 expressed in Xenopus oocytes (rat; rabbit), Q02294; assay: cell-based or functional assay
Chain of recombinant N-type (Cav2.2) VGCC α1B-b/α2δ1/β3 expressed in Xenopus oocytes (rat; rabbit), Q02294 (P13806 27-1106, stated change not applied, chain 2 of 2): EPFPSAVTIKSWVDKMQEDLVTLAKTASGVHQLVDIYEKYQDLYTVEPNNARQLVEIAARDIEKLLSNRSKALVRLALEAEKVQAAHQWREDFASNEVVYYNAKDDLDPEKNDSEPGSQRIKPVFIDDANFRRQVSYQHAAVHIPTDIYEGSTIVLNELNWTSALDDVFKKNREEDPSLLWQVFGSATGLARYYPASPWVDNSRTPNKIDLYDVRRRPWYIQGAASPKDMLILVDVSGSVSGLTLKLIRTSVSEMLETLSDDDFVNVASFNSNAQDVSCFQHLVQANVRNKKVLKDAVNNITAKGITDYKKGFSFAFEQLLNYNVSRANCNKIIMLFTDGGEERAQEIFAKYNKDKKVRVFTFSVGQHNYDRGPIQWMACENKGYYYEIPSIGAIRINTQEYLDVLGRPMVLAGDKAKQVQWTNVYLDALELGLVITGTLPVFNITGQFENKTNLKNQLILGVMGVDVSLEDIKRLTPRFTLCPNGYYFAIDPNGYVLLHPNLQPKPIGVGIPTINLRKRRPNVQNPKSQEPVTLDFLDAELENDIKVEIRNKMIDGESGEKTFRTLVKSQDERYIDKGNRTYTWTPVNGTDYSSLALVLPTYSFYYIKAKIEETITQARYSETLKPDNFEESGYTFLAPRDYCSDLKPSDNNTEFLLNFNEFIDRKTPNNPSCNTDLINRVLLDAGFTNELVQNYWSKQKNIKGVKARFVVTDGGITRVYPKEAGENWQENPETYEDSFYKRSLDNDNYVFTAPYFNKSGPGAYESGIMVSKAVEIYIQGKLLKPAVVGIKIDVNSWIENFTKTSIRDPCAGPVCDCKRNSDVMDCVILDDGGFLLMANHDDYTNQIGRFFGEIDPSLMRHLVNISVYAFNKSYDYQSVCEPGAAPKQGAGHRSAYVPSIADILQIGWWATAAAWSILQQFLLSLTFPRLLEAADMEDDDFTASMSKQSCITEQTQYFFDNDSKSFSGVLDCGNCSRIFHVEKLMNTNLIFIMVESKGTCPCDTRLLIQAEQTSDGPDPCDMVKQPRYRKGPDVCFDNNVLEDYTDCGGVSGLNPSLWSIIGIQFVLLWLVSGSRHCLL
Chain of recombinant N-type (Cav2.2) VGCC α1B-b/α2δ1/β3 expressed in Xenopus oocytes (rat; rabbit), Q02294 (P54287 whole entry, stated change not applied, chain 3 of 2, further chain): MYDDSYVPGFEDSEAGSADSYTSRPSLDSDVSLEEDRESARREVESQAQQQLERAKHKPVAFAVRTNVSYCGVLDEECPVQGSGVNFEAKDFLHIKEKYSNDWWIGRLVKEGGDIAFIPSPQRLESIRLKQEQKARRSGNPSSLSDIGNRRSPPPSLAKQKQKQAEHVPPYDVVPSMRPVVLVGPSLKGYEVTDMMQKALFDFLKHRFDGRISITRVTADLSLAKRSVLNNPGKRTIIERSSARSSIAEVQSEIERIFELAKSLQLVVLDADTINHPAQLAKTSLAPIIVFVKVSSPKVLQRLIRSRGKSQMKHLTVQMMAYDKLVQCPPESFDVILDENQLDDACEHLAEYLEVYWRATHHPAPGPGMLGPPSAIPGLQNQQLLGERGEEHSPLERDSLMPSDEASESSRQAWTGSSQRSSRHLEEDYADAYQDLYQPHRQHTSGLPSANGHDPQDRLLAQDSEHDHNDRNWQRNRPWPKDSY

Chain of recombinant N-type (Cav2.2) VGCC α1B-b/α2δ1/β3 expressed in Xenopus oocytes (rat; rabbit) (P13806 27-1106, stated change not applied, chain 2 of 2): as the sequence (P13806 27-1106, stated change not applied, chain 2 of 2) above
Chain of recombinant N-type (Cav2.2) VGCC α1B-b/α2δ1/β3 expressed in Xenopus oocytes (rat; rabbit) (P54287 whole entry, stated change not applied, chain 3 of 2, further chain): as the sequence (P54287 whole entry, stated change not applied, chain 3 of 2, further chain) above

Work on “ω-conotoxin CVIB (from UniProt P58918 1-25) (peptide)” yielded an IC50 of inhibition of normalized peak IBa, Xenopus oocytes [1] of 12 nM.

With ω-conotoxin CVIE (peptide) the IC50 of inhibition of normalized peak IBa, Xenopus oocytes [1] was 2.6 nM, the time constant of block (τon) at HP -80 mV [1] was 31.5 s and the time constant of block (τon) at HP -125 mV [1] was 38.5 s.

Molecule CKGKGASCRRTSYDCCTGSCRSGRC (modifications not checked) [ω-conotoxin CVIF] has an IC50 of inhibition of normalized peak IBa, Xenopus oocytes [2] of 19.9 nM.
